Measured values published in patent US9926369B2, “Methods for treating hepatocellular cancer by administering an anti-Ang-2 antibody” (Regeneron Pharmaceuticals, Inc., priority 2009, dated 2018).
pKd: −log10 of the molar value. Values joined by “and” are separate entries in the source; they are usually repeats but may differ in a detail not shown here. Equal values may be shown once.

Experiments:
[1] = biological target: T1, hAng-2-WT (Homo sapiens, UniProt O15123); assay: SPR binding to full-length wild-type human Ang-2 (preferential binding)
T1 construct: wild-type human Ang-2 (hAng-2-WT)
T1 sequence (O15123 19-496): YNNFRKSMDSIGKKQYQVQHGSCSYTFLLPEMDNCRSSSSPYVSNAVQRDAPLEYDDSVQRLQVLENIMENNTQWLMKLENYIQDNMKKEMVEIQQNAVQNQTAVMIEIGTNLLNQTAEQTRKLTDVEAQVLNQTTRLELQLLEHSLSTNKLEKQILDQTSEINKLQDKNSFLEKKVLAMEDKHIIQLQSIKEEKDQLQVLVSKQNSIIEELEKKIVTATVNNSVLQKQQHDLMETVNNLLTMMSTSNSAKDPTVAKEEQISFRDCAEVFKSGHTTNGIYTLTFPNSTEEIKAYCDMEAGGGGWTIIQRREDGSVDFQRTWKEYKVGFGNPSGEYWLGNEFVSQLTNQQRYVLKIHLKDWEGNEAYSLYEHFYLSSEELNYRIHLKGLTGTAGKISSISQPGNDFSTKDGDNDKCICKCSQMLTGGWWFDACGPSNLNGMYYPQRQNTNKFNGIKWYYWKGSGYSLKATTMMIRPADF
Experimental: Binding experiments (plasmon resonance assays) were conducted to ascertain whether selected antibodies bound to both Ang-2 and Ang-1 or if they preferentially bound to Ang-2 only. Each selected antibody or control construct was captured at a flow rate of 40 μL/min for 1 minute on a goat anti-human IgG polyclonal antibody surface created through direct chemical coupling to a BIACORE™ chip to form a captured antibody surface. Full-length wild-type human Ang-1 or Ang-2 at a concentration of 25 nM or 0.78 nM were injected over the captured antibody surface at a flowrate of 60 μL/min for 3 minutes, and antigen-antibody dissociation was monitored in real time for 20 minutes at either 25° C. or 37° C.

[2] = tested on: retinal superficial vasculature; assay: Retinal vascularization in wild-type mice; type: in vivo; settings: 12.5 mg/kg subcutaneous at P2, retina at P5
Experimental: In one set of experiments wild-type mice were used. In another set, mice expressing a human Ang-2 in place of the wild-type mouse Ang-2 (designated “hu-Ang-2 mice”) were used. The mice at two days of age (P2) were injected subcutaneously with either control Fc or with selected anti-Ang-2 antibodies at a dose of 12.5 mg/kg. Three days later (at P5), pups were euthanized, and eyeballs were enucleated and fixed in 4% PFA for 30 minutes. Retinas were dissected, stained with Griffonia simplicifolia lectin-1 for 3 hours or overnight at 4° C. to visualize the vasculature, and flat-mounted on microscope slides. Images were taken using a Nikon Eclipse 80i microscope camera and analyzed using Adobe Photoshop CS3, Fovea 4.0, and Scion 1.63 software.
Areas of the retina covered with superficial vasculature were measured and used as a readout of antibody activity. The reduction in the size of the vascular areas in mice treated with antibody compared to Fc-treated controls is presented in Table 34. The percent reduction in vascular area reflects the anti-angiogenic potency of the antibody. (N/D=not determined)

[3] = biological target: T2, hAng-2FD-mFc Y-475-H (Homo sapiens, UniProt O15123, Y475H); assay: Ang-2FD-mFc point mutant binding experiment (SPR), Y-475-H; settings: Y-475-H mutant captured; antibody/peptibody at 100 nM; 25° C.
T2 construct: made in house
T2 sequence (O15123 with tags, fused parts or gaps Y475H): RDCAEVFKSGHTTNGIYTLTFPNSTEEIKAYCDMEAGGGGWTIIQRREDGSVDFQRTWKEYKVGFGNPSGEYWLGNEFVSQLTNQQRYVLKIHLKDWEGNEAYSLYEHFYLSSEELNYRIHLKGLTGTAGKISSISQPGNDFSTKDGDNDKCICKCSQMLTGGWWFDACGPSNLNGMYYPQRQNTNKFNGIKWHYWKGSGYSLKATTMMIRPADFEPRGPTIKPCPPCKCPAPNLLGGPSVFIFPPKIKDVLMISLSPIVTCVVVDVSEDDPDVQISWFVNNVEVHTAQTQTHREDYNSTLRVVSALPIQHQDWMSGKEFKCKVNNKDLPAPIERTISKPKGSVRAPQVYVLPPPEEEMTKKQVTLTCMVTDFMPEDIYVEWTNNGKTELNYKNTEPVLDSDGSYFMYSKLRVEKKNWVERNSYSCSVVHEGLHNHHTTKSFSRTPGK
Source text: To further characterize binding between hAng2 and anti-hAng2 mAbs of the invention, seven variant hAng2-FD-mFc proteins were generated, each containing a single point mutation. Amino acids selected for mutation were based on the difference in sequence between hAng-2 and hAng-1 in the region that interacts with hTie-2 (FIG. 1). In particular, amino acids within the fibrinogen-like domain (FD) of Ang-2 which are believed to interact with Tie-2 based on crystal structure analysis, but which differ from the corresponding amino acid in Ang-1, were individually mutated to the corresponding hAng-1 residue. The results of this example indicate the amino acid residues of hAng-2 with which the Ang-2 preferential binding antibodies interact.
In this experiment, each of the seven hAng-2FD-mFc mutant proteins were captured (˜147-283 RU) on an anti-mouse-Fc surface created through direct chemical coupling to a BIACORE™ chip. Then each Ang-2 antibody (or peptibody, as the case may be) at 100 nM was injected over the captured mFc-tagged hAng-2FD protein surface at a flowrate of 50 μl/min for 180 sec, and the dissociation of variant hAng2-FD-mFc and antibody was monitored in real time for 20 min at 25° C.

[4] = biological target: T3, Monomeric hAng-2FD (Homo sapiens, UniProt O15123); assay: SPR binding to monomeric hAng-2FD at 25° C. and 37° C.
T3 sequence (O15123 282-496 limits assumed): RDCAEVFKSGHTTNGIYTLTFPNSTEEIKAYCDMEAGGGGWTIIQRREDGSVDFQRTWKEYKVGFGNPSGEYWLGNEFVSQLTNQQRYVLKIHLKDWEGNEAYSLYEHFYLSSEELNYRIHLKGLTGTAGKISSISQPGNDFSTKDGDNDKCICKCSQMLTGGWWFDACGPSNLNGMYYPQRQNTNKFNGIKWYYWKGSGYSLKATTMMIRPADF
Experimental: Additional experiments were conducted to measure the binding properties of selected anti-Ang-2 antibodies to monomeric hAng-2FD at 25° C. and 37° C. Each selected antibody or control construct was captured at a flow rate of 40 μL/min for 1 minute on a goat anti-human IgG polyclonal antibody surface created through direct chemical coupling to a BIACORE™ chip to form a captured antibody surface. Human Ang-2FD at a concentration of 500 nM or 7.8 nM was injected over the captured antibody surface at a flowrate of 60 μL/min for 3 minutes, and antigen-antibody dissociation was monitored in real time for 20 minutes at either 25° C. or 37° C.

With “H1H685P: human anti-Ang-2 antibody, HCVR/LCVR SEQ ID NOs 18/20; also referred to as mAb1 [Antibody H1H685P]” the “kd, binding to hAng-2-WT” value ([1]; 25° C.) was 1.6e-05 s⁻¹ and 8.5e-06 s⁻¹, the “kd, binding to hAng-2-WT” value ([1]; 37° C.) was 3.76e-05 s⁻¹ and 2.16e-05 s⁻¹ and the “% Reduction in Vascular Area Relative to Fc Control, Wild-Type Mice” value [2] was 39.7%. For the same substance, the pKd [3] was 9.71, the RU [3] was 181.53 RU and the pKd ([4]; 25° C.) was 9.47. The “ka, binding to monomeric hAng-2FD” value ([4]; 25° C.) was 244000 M/s, the “kd, binding to monomeric hAng-2FD” value ([4]; 25° C.) was 7.96e-05 s⁻¹ and the pKd ([4]; 37° C.) was 9.47. For the same substance, the “ka, binding to monomeric hAng-2FD” value ([4]; 37° C.) was 406000 M/s and the “kd, binding to monomeric hAng-2FD” value ([4]; 37° C.) was 0.000139 s⁻¹.
